Source: article PMC4428629, “The Structure of an NDR/LATS Kinase–Mob Complex Reveals a Novel Kinase–Coactivator System and Substrate Docking Mechanism” (PLoS Biology, 2015)
Residues, ends and D or L forms follow the SMILES beside them. No end group written: not given here. carboxyfluorescein = carboxyfluorescein label

Legend:
Cbk1–Mob2 = assay: In vitro pulldown of Cbk1–Mob2; type: binding, Saccharomyces cerevisiae
Experimental: Cbk1 substrates containing the docking motifs or substrate sites were bacterially expressed as MBP or GST fusions. For pulldown assays, MBP-fusion lysates were incubated with amylose resin (New England Biolabs) on ice for 15 min, followed by washing with PBS (137 mM NaCl, 2.7 mM KCl, 4.3 mM Na2HPO4, 1.4 mM KH2PO4 [pH 7.3]). GST fusions were purified on glutathione Sepharose beads followed by dialysis into Cbk1 buffer.
MBP fusions were incubated on bead with 1 μM purified Cbk1 on ice for 15 min. Samples were washed 3× with PBS (transferred to fresh tube on last wash), resuspended in SDS-PAGE buffer, and separated by SDS-PAGE. Samples were directly visualized with GelCode Blue (Pierce) or transferred to PVDF membrane for immunoblotting. Cbk1 was detected using His or pS570 primary antibodies. For experiments detected using α-pS570, antibody signal with pure protein was analyzed to control for lot-dependent variations in expression as well as variations between Cbk1 mutants (no variations detected).

Cbk1^251-756-Mob2 = molecular target: T1, Cbk1^251-756-Mob2 (Saccharomyces cerevisiae, UniProt P43563+P53894); assay: FP direct titration, Cbk1^251-756-Mob2 (WT); type: binding; details: CF-labeled peptide 20 nM, Tris pH 8.0, triplicate, read-out: peptide binding affinity (table in Fig 5C)
T1 construct: His6-Cbk1^251–756 was co-expressed with GST-Mob2 (full length or 45–287); His6 (N); made in house
T1 sequence (P53894 251-756): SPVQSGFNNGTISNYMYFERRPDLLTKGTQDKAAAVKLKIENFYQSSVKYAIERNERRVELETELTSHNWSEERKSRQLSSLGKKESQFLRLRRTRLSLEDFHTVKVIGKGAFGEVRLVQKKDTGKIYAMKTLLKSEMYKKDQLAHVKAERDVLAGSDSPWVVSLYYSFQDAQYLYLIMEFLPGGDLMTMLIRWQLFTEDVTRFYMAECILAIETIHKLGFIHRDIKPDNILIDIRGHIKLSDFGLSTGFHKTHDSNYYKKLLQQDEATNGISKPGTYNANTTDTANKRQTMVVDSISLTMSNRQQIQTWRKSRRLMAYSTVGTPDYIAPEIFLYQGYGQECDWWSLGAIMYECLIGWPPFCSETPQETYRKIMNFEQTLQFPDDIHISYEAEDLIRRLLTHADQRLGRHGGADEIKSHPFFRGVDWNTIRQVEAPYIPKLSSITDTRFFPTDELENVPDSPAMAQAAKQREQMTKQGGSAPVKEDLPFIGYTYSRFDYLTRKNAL
T1 sequence (P43563 1-287 partner): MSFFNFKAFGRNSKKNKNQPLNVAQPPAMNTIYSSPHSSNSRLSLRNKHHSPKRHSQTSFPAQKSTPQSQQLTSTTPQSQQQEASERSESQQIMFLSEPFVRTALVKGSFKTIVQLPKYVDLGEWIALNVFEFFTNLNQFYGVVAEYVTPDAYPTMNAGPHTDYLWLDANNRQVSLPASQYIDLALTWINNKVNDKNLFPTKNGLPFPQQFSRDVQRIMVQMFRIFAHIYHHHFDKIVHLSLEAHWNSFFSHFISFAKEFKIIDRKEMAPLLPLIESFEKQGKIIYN
Experimental: His6-Cbk1^251–756 was co-expressed with GST-Mob2 (full length or 45–287). Cbk1 kinase domain alone (352–756 or 352–692) was expressed as GST-Cbk1-His6. All constructs were bacterially expressed and purified on a Ni-NTA resin (Qiagen) followed by glutathione Sepharose beads (GE Biosciences). For crystallization, tags were cleaved with TEV protease followed by cation exchange chromatography on a Resource S column. All Cbk1 preparations were subsequently dialyzed into Cbk1 buffer (20 mM Tris-HCl, 150 mM NaCl, 2 mM DTT [pH 8.0]).
For FP-based binding affinity measurements, different docking peptides (pepAce2: GSGSIIVTTNSANGGYQFP; pepSSD1: TTEQSDFKFP; pepHM: IGYTYSRFDY; pepHM-P: IGYpTYSRFDY) were N-terminally (pepAce2 and pepSSD1) or C-terminally (pepHM and pepHM-P) labeled with carboxyfluorescein (CF) fluorescent dyes.
Change in the FP signal in direct binding affinity measurements was monitored as a function of increasing concentration of protein with a Synergy H4 (BioTek Instruments) plate reader in 384-well plates. The labeled peptides were at 20 nM in 20 mM Tris (pH 8.0), 100 mM NaCl, 0.05% Brij35P, 2 mM DTT. The resulting binding isotherms were fit to a quadratic binding equation. The affinity of the unlabeled peptides was measured in steady-state competition experiments: 20 nM labeled reporter was mixed with protein samples in a concentration to achieve ~60%–80% complex formation. Subsequently, increasing amounts of unlabeled peptide were added, and the FP signal was measured as described earlier for direct titration experiments. The Kd for each unlabeled peptide interaction was determined by fitting the data to a competition binding equation. Titration experiments were carried out in triplicate, and the average FP signal was used for fitting the data with OriginPro 7.

[1] = test system: budding yeast cell separation (RAM network output); assay: Cell separation assay (cells per group); type: cell-based, Saccharomyces cerevisiae; details: cbk1-as2 strain
[2] = test system: budding yeast cell separation (RAM network output); assay: Cell separation assay (cells per group); type: cell-based, Saccharomyces cerevisiae; details: cbk1-as2 strain; remark: listed apart in the source
Experimental: For cell separation assays, ckb1Δ, ace2ΔCBK1, or ace2Δcbk1-as2 cells were transformed with empty, WT, or mutant vector under control of the ADH1 promoter. Cells were grown to log-phase, briefly sonicated, and mounted on slides to count cell group size. Histograms represent mean ± standard deviation of three independent cultures, with >100 groups counted for each. For quantification of transcriptional output, RNA was isolated from log-phase cultures and analyzed by real-time PCR. Bar graphs represent mean ± standard deviation of three independent cultures. For growth assays, WT CBK1 or cbk1-as2 strains were transformed with vectors containing Ssd1 (WT and mutants) expressed from a galactose-inducible promoter. Stationary phase cells grown in glucose were diluted to OD600 = 0.2. Five-fold serial dilutions (5^−2, 5^−3, 5^−4, 5^−5) were plated in the presence of glucose or galactose, then incubated for 3 d at 24°C.
(§1) Supplementary file pbio.1002146.s001.xlsx: S1 Data Measurements of the distances between the centers of mass of indicated Cbk1 and Mob2 regions over the course of the molecular dynamics simulations described in Figs 3 and S4. This file also contains data quantifying the effectiveness of cell separation in different genetic backgrounds. In these experiments we counted the number of cells present in clumps of specific sizes in random microscope fields, and then binned these groups into clump size ranges: 1–4 cells, 5–10 cells, 11–20 cells, and ≥21 cells per clump. We quantified this for the indicated allele combinations, scoring three independent isolates of each allele combination. The number of cell bodies present in clumps of different sizes is a function of the efficiency of cell separation. (XLSX) Click here for additional data file.
as §1, with “pbio.1002146.s004.xlsx: S4” for “pbio.1002146.s001.xlsx: S1”, “Data” for “Measurements of the distances between the centers of mass of indicated Cbk1 and Mob2 regions over the course of the molecular dynamics simulations described in Figs 3 and S4. This file also contains data”, “1–2 cells, 3–4” for “1–4”

Cbk1(W444A)–Mob2 complex = Cbk1(W444A)–Mob2 complex (S. cerevisiae, UniProt P53894 251-756; P43563 1-287, W444A); assay: FP
Sequence of Cbk1(W444A)–Mob2 complex (P53894 251-756 W444A, chain 1 of 2, one chain of several): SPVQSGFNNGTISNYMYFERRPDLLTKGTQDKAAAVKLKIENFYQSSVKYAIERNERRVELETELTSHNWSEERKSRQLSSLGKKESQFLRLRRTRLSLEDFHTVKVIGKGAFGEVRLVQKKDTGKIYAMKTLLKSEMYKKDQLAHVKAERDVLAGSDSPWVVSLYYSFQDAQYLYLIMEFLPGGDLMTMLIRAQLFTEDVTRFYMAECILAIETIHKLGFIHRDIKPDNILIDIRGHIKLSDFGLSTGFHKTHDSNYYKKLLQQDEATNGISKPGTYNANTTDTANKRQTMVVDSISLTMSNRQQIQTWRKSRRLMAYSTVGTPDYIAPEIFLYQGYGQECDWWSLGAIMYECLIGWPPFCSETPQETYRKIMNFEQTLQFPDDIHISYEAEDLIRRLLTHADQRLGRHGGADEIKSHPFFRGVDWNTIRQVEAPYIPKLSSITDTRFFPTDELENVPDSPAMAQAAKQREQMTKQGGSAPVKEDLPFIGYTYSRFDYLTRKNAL

Cbk1(F699A)–Mob2 complex = Cbk1(F699A)–Mob2 complex (S. cerevisiae, UniProt P53894 251-756; P43563 1-287, F699A); assay: FP
[3] = molecular target: T2, Cbk1^251–756–Mob2 complex (S. cerevisiae, UniProt P53894 251-756; P43563 1-287); assay: FP
T2 chain 1: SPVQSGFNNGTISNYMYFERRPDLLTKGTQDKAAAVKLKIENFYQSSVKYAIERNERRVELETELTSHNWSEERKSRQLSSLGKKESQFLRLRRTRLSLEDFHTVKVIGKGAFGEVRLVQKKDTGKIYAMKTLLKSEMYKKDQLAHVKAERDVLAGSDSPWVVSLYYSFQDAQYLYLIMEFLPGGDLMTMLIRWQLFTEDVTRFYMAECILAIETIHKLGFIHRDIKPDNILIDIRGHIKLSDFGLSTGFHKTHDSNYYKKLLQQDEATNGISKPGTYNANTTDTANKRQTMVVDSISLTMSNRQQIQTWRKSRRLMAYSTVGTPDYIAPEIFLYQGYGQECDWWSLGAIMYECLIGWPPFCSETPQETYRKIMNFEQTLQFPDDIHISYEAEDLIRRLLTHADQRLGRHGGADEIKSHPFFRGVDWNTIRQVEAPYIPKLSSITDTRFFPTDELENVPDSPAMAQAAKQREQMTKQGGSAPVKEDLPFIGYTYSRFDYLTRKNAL
T2 chain 2: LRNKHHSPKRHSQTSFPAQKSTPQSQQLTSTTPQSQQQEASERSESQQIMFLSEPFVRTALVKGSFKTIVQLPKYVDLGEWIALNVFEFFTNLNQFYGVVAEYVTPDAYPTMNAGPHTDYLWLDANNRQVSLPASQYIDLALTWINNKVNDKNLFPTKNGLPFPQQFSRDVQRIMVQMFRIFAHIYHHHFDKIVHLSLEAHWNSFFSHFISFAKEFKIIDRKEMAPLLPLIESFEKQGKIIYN

## Ssd1^208–214: Ssd1 docking fragment used for Cbk1 pulldown (QSDFKFP; UniProt P24276 208-214, looked up, fragment)
Cbk1–Mob2; Cbk1 F699A mutant (Fig 5B)
  Cbk1 pulldown: not nearby F699A abrogate Cbk1 pulldown
Cbk1–Mob2; Cbk1 Y687A mutant (Fig 5B)
  Cbk1 pulldown: abrogate Cbk1 pulldown

## C[C@@H](O)[C@H](N)C(=O)N[C@H](C(=O)N[C@@H](CCC(=O)O)C(=O)N[C@@H](CCC(N)=O)C(=O)N[C@@H](CO)C(=O)N[C@@H](CC(=O)O)C(=O)N[C@@H](Cc1ccccc1)C(=O)N[C@@H](CCCCN)C(=O)N[C@@H](Cc1ccccc1)C(=O)N1CCC[C@H]1C(=O)O)[C@@H](C)O [pepSSD1] (H-TTEQSDFKFP-OH)
Cbk1^251-756-Mob2
  Kd: 6 µM

B1: Ace2 WT (protein, UniProt P21192 1-770, looked up)
Metallothionein expression …: MDNVVDPWYINPSGFAKDTQDEEYVQHHDNVNPTIPPPDNYILNNENDDGLDNLLGMDYYNIDDLLTQELRDLDIPLVPSPKTGDGSSDKKNIDRTWNLGDENNKVSHYSKKSMSSHKRGLSGTAIFGFLGHNKTLSISSLQQSILNMSKDPQPMELINELGNHNTVKNNNDDFDHIRENDGENSYLSQVLLKQQEELRIALEKQKEVNEKLEKQLRDNQIQQEKLRKVLEEQEEVAQKLVSGATNSNSKPGSPVILKTPAMQNGRMKDNAIIVTTNSANGGYQFPPPTLISPRMSNTSINGSPSRKYHRQRYPNKSPESNGLNLFSSNSGYLRDSELLSFSPQNYNLNLDGLTYNDHNNTSDKNNNDKKNSTGDNIFRLFEKTSPGGLSISPRINGNSLRSPFLVGTDKSRDDRYAAGTFTPRTQLSPIHKKRESVVSTVSTISQLQDDTEPIHMRNTQNPTLRNANALASSSVLPPIPGSSNNTPIKNSLPQKHVFQHTPVKAPPKNGSNLAPLLNAPDLTDHQLEIKTPIRNNSHCEVESYPQVPPVTHDIHKSPTLHSTSPLPDEIIPRTTPMKITKKPTTLPPGTIDQYVKELPDKLFECLYPNCNKVFKRRYNIRSHIQTHLQDRPYSCDFPGCTKAFVRNHDLIRHKISHNAKKYICPCGKRFNREDALMVHRSRMICTGGKKLEHSINKKLTSPKKSLLDSPHDTSPVKETIARDKDGSVLMKMEEQLRDDMRKHGLLDPPPSTAAHEQNSNRTLSNETDAL
[1]; Isolate 1
  Cells per group, bin 4 (3-4), %: 16.9065%
[1]; Isolate 1, count
  Cells per group, bin 2 (1-2), Frequency: 213
  Cells per group, bin 4 (3-4), Frequency: 47
[1]; Isolate 2, count
  Cells per group, bin 4 (3-4), Frequency: 18
[1]; Isolate 3
  Cells per group, bin 2 (1-2), %: 97.3684%
[2]; Isolate 1
  Cells per group, bin 2 (1-2), %: 76.6187%
  Cells per group, bin 10 (5-10), %: 5.7554%
  Cells per group, bin 20 (11-20), %: 0.7194%
  Cells per group, bin More (20+), %: 0%
[2]; Isolate 1, count
  Cells per group, bin 10 (5-10), Frequency: 16
  Cells per group, bin 20 (11-20), Frequency: 2
  Cells per group, bin More (20+), Frequency: 0
[2]; Isolate 2
  Cells per group, bin 2 (1-2), %: 92.7273%
  Cells per group, bin 4 (3-4), %: 6.545%
  Cells per group, bin 10 (5-10), %: 0.7273%
  Cells per group, bin 20 (11-20), %: 0%
  Cells per group, bin More (20+), %: 0%
[2]; Isolate 2, count
  Cells per group, bin 2 (1-2), Frequency: 255
  Cells per group, bin 10 (5-10), Frequency: 2
  Cells per group, bin 20 (11-20), Frequency: 0
  Cells per group, bin More (20+), Frequency: 0
[2]; Isolate 3
  Cells per group, bin 4 (3-4), %: 1.579%
  Cells per group, bin 10 (5-10), %: 0.5263%
  Cells per group, bin 20 (11-20), %: 0.5263%
  Cells per group, bin More (20+), %: 0%
[2]; Isolate 3, count
  Cells per group, bin 2 (1-2), Frequency: 185
  Cells per group, bin 4 (3-4), Frequency: 3
  Cells per group, bin 10 (5-10), Frequency: 1
  Cells per group, bin 20 (11-20), Frequency: 1
  Cells per group, bin More (20+), Frequency: 0
[2]; mean of 3 isolates
  Cells per group, 1-2, Mean: 88.9048%
  Cells per group, 3-4, Mean: 8.344%
  Cells per group, 5-10, Mean: 2.336%
  Cells per group, 11-20, Mean: 0.4152%
  Cells per group, 20+, Mean: 0%

B2: pepAce2, carboxyfluorescein-labelled (peptide)
peptide: carboxyfluorescein-GSGSIIVTTNSANGGYQFP
Cbk1(W444A)–Mob2 complex
  Kd: 19 µM
Cbk1(F699A)–Mob2 complex
  Kd: 5 µM
[3]
  Kd: 5 µM
